Data on 41 sequences can be found in the nanobody polyreactivity screen of Harvey et al. (2022).

The series is described as follows: yeast display, Sf9 membrane polyspecificity reagent, FACS + sequencing; frameworks hold sequencing errors. The gist of the method:
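A synthetic nanobody library was expressed on Saccharomyces cerevisiae BJ5465 by galactose induction for 36–48 hours. The library was stained for 1 hour at 4 °C with 10% biotinylated, detergent-solubilized Sf9 membrane reagent and enriched with streptavidin microbeads before FACS. Low and high (top ~1%) gates were set on anti-HA fluorescence for expression and streptavidin fluorescence for reagent binding, and each polyreactivity label reflects the gate of origin.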
As for “QVQLVESGGGLVQAGGSLRLSCAASGRTFVKNAMGWYRQAPGKERELVAAISSSGGSTYYADSVKGRFTISRDNAKNTVYLQMNSLKPEDTAVYYCNRYSRLYLTDDDYWGQGTQVTVSS”, the “polyreactivity (PSR sort gate)” value is reported as “high polyreactivity”.

Take “QVQLVESGAGLVQAGGSLRLSCAASGRTFWSYAMGWYRQAPGKERELVAAIRTSDGITYYADSVKGRFTISRDNAKNTVYLQMNSLKPEDTAVYYCAAENWYNYDYWGQGTQVSVSS”: the “polyreactivity (PSR sort gate)” value was “low polyreactivity”.

In the case of “QVQLVESDGGLVQAGGSLRLSCAASGSTFRYNAMGWYRQAPGKERELVAAISWGGGTPFYADSVKGRFTISRDNAKNTVYLQMNSLTPEDTAVYYCAASYRDYPWGRYYYWGQGTQVTVSS”, the “polyreactivity (PSR sort gate)” value is given as “low polyreactivity”.

For the sequence “QVQLVESGGGLVQAGGSLRFSCAASGSIFSVYAMGGYRQAPGKERELVASITSGGRTKYADSVKGRFTISRDNAKNTVYLQMNSLKPEDTAVYYCAAGTTWRYGGKYNYWGQGTQVTVSS”, the “polyreactivity (PSR sort gate)” value is recorded as “low polyreactivity”.

For “QVQLVESGGGLVQAGVSLRLSCAASGFTFTTYVMGSYRQAPGKERELVAAISRRGTSTRYADSVKGRFTISRDNAKNTVYLQMNSLKPEDTAVYYCAADRPYSIVPYDYWGQGTQVTVSS”, the “polyreactivity (PSR sort gate)” value is recorded as “high polyreactivity”.

For “QVQLVESGGGLVQAGGSLRLSCAASGSTFHYYAMGWYRQAPGKERELVAAINSGARTYYADSVKGRFTISRDNAKNTVYLQMNSLKPEDTAVYYCAKDYTYSFGRSLDYWGQGTQVTVSS”, the “polyreactivity (PSR sort gate)” value is “low polyreactivity”.

Take “QVQLVESGGGLVQAGGSLRLSCAASGSIFSRNAMGWSRPAPGKERELVAAISWSGGRKYYADSVKGRFTISRDNAKNTVYLQMNSLKPEDTAVYYCAAKVGYLAAYGRIRVYRYGYWGQGTQVTVSS”: the “polyreactivity (PSR sort gate)” value was “high polyreactivity”.

For the sequence “QVQLVESGGGLVQAGGSLRLSCAASGNIFLDYAMGWYRQAPGKERELVAANTSRVDDTYYADSVKGRFTISLDNAKNTVYLQMTSLKPEFTAVDYCAADYSVTLLIGGYYWFYAFDYWGQGTQVTVSS”, the “polyreactivity (PSR sort gate)” value is listed as “low polyreactivity”.

As for “QVQLVESGGGLFQAGGSLRLTCAASGITFYYYAMGWYRQAPGKERELVAAISVRGTRTFYADCVKWRFTISRDNAKNTVYLQMNSLKPEDTEVYYCNKSVSNDDGLEYWGQGTQVTVSS”, the “polyreactivity (PSR sort gate)” value is “high polyreactivity”.

With “QVQLVESGRGLLQAGGSLRLSCAASGSIFYPYVMGWYRQAPGKERELVASISWRGGRTYYADSVKGRFTISRDNAKNTVYLQMNSMKPEDTAVYYCAKRTYDSFYGYYYWGQGTQVTVSS”, the “polyreactivity (PSR sort gate)” value is “high polyreactivity”.

Regarding “QVQLVESGGGLVQAGGSLRLSCSASGRISVFNVMGWYRQAPGKERELVAAITSGGSTIYADSVKGRFTISRDNAKNTVYLQMNSLKPEDTAVYYCAALYQFHGKIWDGDYWGQGTQVTVSS”, the “polyreactivity (PSR sort gate)” value is on record as “low polyreactivity”.

Regarding “QVQLVESGGGLVQAGGSLRLSCAASGSTFTRYAMGWYRQAPGKERELVAAISSGGSTYADSVKGRFTISRDNAKNTVYLQMNSLKPEDTAVYYCAARLYTYPKGKYWGQGTQVTVSS”, the “polyreactivity (PSR sort gate)” value was “high polyreactivity”.

Regarding “QVQLVESGGGLVQAGGSLRLSCAASGSIFYPYAMGWYRQAPGKERELVAAITWSGGETYYADSVKGRFTISRDNAKNTVYLQMNSLKPEDTAVYYCAAEWNVSPYDYWGQGTQVTVSS”, the “polyreactivity (PSR sort gate)” value is recorded as “low polyreactivity”.

In the case of “QVQVVESGGGLVQAGGSLRLSCAASGSIFAYYAMGWYRQAPGKERELVAVISSDGSTYYADSVKGRFTISRDNAKNTVYLQMNSLKPEDTAVYYCAAYPGKYSRYNYWGQGTQVTVSS”, the “polyreactivity (PSR sort gate)” value is given as “high polyreactivity”.

As to “QVQLVESGGGLVQAGGSLRLSCAASGGTFYHYAMGWYRQAPGKERELVAAISWGGGSTYYADSVKGRFTISRDNAKNTVYLQMNSLKPEHTAVYYCAARRGFRFRDYYWGQGTQVTVSS”, the “polyreactivity (PSR sort gate)” value is on record as “high polyreactivity”.

For the sequence “QFQLVESGGGLVQAGGSLRLSCAASGRTFSRTAMGWYRQAPGKERELVAAITKGGGSTYYADSVKGRFTISRDNAKNTVYLQMNSLKPEDTAVYYCAAYKPSTRRYDYWGQGTQVTVSS”, the “polyreactivity (PSR sort gate)” value is “high polyreactivity”.

Regarding “QVQLVESGGGLVQAGGSLRLSCAASGRTFNGYAMGWYRQAPGKERELVASISWSGGRTYYADSVKGRFTISRDNAKNTVYLQMNSLIPEDTAVYYCNAYYYRVPRPWFDYWGQGTQVTVSS”, the “polyreactivity (PSR sort gate)” value is reported as “high polyreactivity”.

For the sequence “QVQHVESGGALVQAAGSLSLRCAASGSTFGYNAMGWYRQAPSKEMELVAVITDSGGSSYYADSVKGRFTISRDNPKNTVYVQMHSLNPEDTAVYYCAKFYGLVVSGHVILSGFEYWGQGTLVTVSS”, the “polyreactivity (PSR sort gate)” value is “low polyreactivity”.

As to “QVQLVESGGGLVQAGGSLRLSCAASGFTFLNYDMGWYRQAPGKERELVAAISRSDGITYYADSVKGRFTISRDNAKNSVYLHMNSLKPEDTAVYYCAAERDTPVGVPGYEYYYWGQGTQVTVSS”, the “polyreactivity (PSR sort gate)” value is given as “high polyreactivity”.

On to “QVQLVESGGGLVQAGGSLRLSCAASGRTFRYYSMGWYRQAPGKERELVATITGSGGSTYYADSVKGRFTISRDNAKNTVYLQMNSLKPEDTAVYYCNARKVRYPYRWYDYWGQGTQVTVSS”, for which the “polyreactivity (PSR sort gate)” value is listed as “high polyreactivity”.

With “QVQLVESGGGLVQAGCSLRLSCAASGRIFTTYAMGWYRQAPGKERELVASIDSRGDSTYADSVKGRFTISRDNAKNTVYLQMNSLKPEDTAVYYCAADSWYTWFDSWGQGTQVTVSS”, the “polyreactivity (PSR sort gate)” value is given as “low polyreactivity”.

“QGQLVESGGCLVQAGGSRRLSCAASGRTFRGNAMGWYRQAPGKERELVPAISRRGGSTYYSDSVKGRFTISRDNAKITVYLQMNSLEPEDTADYYCARDDVDDNSYGNENGTYGYWGQGTQVTVSS”: the “polyreactivity (PSR sort gate)” value is listed as “high polyreactivity”.

For “QVQLVESGGGLVQAGGSLRLSCAASGFIFWYYAMGWYRPAPGKERELVATITRGGSTYYADSVKGRFTISRDNAKNTVYLQLNSLKPEDTAVYYCNAVRPKIYDYWGQGTQVTLSS”, the “polyreactivity (PSR sort gate)” value was “high polyreactivity”.

Take “QVQLVESGGGLVQAGGSLRLSCAASGSIFGRYVMGWYRQAPGKERELVATISSGGSTYYADSVKGRFTISRDNAKNTVYLQMNSLKPEDTAVYYCAASYSRFVDWIGDPGYDYWGQGTQVTVSS”: the “polyreactivity (PSR sort gate)” value is “low polyreactivity”.

For the sequence “QVQLVESGGGLVQAGGSLRLSCAASGSIYYGKTMGWYRHAAGKEWELDAAISSGGSTKYADSVKGRFTISRDNAKNTVYLQMNSLKPEDTAVYYSAADLPRYWVTWMDYWGQGTQLTVSS”, the “polyreactivity (PSR sort gate)” value was “low polyreactivity”.

Take “QVQLVESGGVLVQAGGSLRLSCAASGLNLAPNAMGWYRQAPGKEMELVAAITRSGGDTYYADSVKGRFTISRENAKNTVYLQMNSLKPEDTAVYYCAKARPGFLYDHWGQGTQVTVSS”: the “polyreactivity (PSR sort gate)” value is given as “high polyreactivity”.

“QVQLVESGGGLVQAGGSLRLSCAASGSIFESYAMGWYRQAPGKERELVADITYDGGITYYADSVKGRFTISRDNAKNTVYLQLNSLKPEDTAVYYCAAQAWWGYYSRGPMDYWGQGTQVTVSS”: the “polyreactivity (PSR sort gate)” value was “low polyreactivity”.

In the case of “QVQLVESGGGLVQAGGSLRLSCAASGSTFGSNAMGWYRQAPGKEREFVAAITWSGGSTYYADSVKGRFTISRDNAKNTVYLQMNSLKPEDTAVYYCAAESDSYFREYDYWGQGTQVTVSS”, the “polyreactivity (PSR sort gate)” value is recorded as “low polyreactivity”.

For “QVQLVESGGGLVQAGGSLRLSCPASGFYAMGWYRQAPGKERELVAAIRGSGSSTYYADSVKGRFTISRDNAKNTVYLQMNSLKPEDTAVYYCAKQGYLVWSGWRWYDYWGQGTQVTVSS”, the “polyreactivity (PSR sort gate)” value is reported as “low polyreactivity”.

As to “QVQLVESGGGLVQAGGSLRLSCAASGIIFYLYTKGWYRQAPGKERELVAAITRGGSTYYADSVKGRFTISRDNAKKTVYLQMNSLKPEDTAVYYCAAKHGPGYRRWYDYWGQGTQVTVSS”, the “polyreactivity (PSR sort gate)” value is “high polyreactivity”.

In the case of “QVQLVESGGGLVQAGGSLRLSCAASGRTFQINAMGWYRQAPGKERELVAAITWSGGSTYYADSVKRRFTISPDNAKNPVYLQMNSLKPADTALYYCNTRYRAYATLNLIAGYNSWGQGTQVTVSS”, the “polyreactivity (PSR sort gate)” value was “low polyreactivity”.

In the case of “QVQLVESGGGLVQAGGSLRLSCAASGYIFIDYAMGWYRQAPGKERELVAAIRWSDSTYYADSVKGRFTISRDNAKNTVYLEMNSLKPEDTAVYYCAAEDSIRWVRRSRWYYYWGQGTQVTVSS”, the “polyreactivity (PSR sort gate)” value was “low polyreactivity”.

Turning to “QLQLVESGGGLVQAGGSLRLSCAASGSIFFGNVMGWYRQAPGKERELVAAINTDGRTYYADSVKGRFTISRDNAKNTVYLQMNSLKPEDTAVYYCAARKGYRYYYWGQGTQVTVSS”, the “polyreactivity (PSR sort gate)” value is recorded as “high polyreactivity”.

Regarding “QVQLVESGGGLVQAGGSLRLSCAASGFTFSNYDMGWYRQAPGKEREFVADIDWSGGTTYYADSVKGRFTISRDNAKNTVYLQMNSLKPEDTAVYYCATDGYRALSYKYDYWGQGTQVTVSS”, the “polyreactivity (PSR sort gate)” value is “low polyreactivity”.

Regarding “QVQLVESGGGLVQAGGSLRLSCAASGLTFEYYTMGWYRQAPGKERELVAAITSSGGSTYYADSVKGRFTISRDNAKNTVYLQMNSLKPEDTAVYYCNAYWTYEFPSYDYWGQGTQVTVSS”, the “polyreactivity (PSR sort gate)” value was “low polyreactivity”.

“QVQLVESGVGLVQAGGSLRLTCAASGRIFVRNAMGWYRQAPGKEMELVARITSSTGRTYYADSVKGRFTISRDNAKNTVYLQFTSLKPEDTAVYYCAVRYFYQFWAYDYWGKGTQVTVSS”: the “polyreactivity (PSR sort gate)” value is “high polyreactivity”.

Consider “QVQLVESGGGLVQAGGSLRLSCAASGRILDAYTMGWYRQAPGKERQLVAAISASGVSTYYADSVKGRFTISRDNAKNTVYLQMNSLKPEDTAVYYCAKDYYQQTGFLEYDYWGHGTQVTVSS”, for which the “polyreactivity (PSR sort gate)” value was “low polyreactivity”.

With “QVQLVESGGGLVQAGGSLRLSCAASGSTFRSNAMGWYRQAPGKERELVAAIRYSGARTYYADSVKGRFTISRDNAKNTVYLQMNSLKPEDTAVYYCAATLYTRTYSWMDYWGQGTQVTVSS”, the “polyreactivity (PSR sort gate)” value is “high polyreactivity”.

“QVQLEESGGGLVQAGGSLRISCAASGRIFRKYTMGWYRQAPGKERELVAAITGTGGSTYYADSVKGRFTISRDNAKNTVYLQMNSLKPVVTAVYYCAADYSARYGYWGQGTQVTVSS”: the “polyreactivity (PSR sort gate)” value is “high polyreactivity”.

As to “QVQLVESGGGLVQAGGSLRLSCAASGSIFISNAMGWYRQAPGKERELFAAINWTTGRTRYADSVKGRFTISRDNAKNTVYLQMNSLKPEDTAVYYCAARPYGGGRRSIYYYWGQGNQVTVSS”, the “polyreactivity (PSR sort gate)” value is given as “high polyreactivity”.

In the case of “QVQLVESGGGLVQAGGSLRLSCAASGITIRRYAMGWYRQAPGKERELVAAITYSGGGSTYYADSVKGRFTISRDNAKNTVYLQMNSLKPEDTAVYYCAAGWYPWGYYSGYISYEYWGQGTQVTVSS”, the “polyreactivity (PSR sort gate)” value is reported as “high polyreactivity”.
